Reference: article PMC4956616
Residue numbers refer to the chain shown, from its start. Names and notes keep the numbering of the source. One block for each binder: values may come before it.

How the values were obtained:
[1] = molecular target: NT-495-labeled Arl1^GTP, P40616; experiment: fluorescence anisotropy; details: chain shown with the change;; parent: 26 ± 5
[2] = molecular target: NT-495-labeled Arl1^GTP (human) (UniProt P40616); experiment: fluorescence polarisation; fluorescence anisotropy, NT-495-labeled Arl1 titrated with DCB variants, 20°C, 50 mM Tris-HCl pH 8.0, 110 mM KCl, 1 mM DTT, 5 mM MgCl2, 0.001% Triton X-100, 0.1% Tween-20, 5 μM GTP; single-site (1:1) model

Chain of NT-495-labeled Arl1^GTP, P40616 (P40616 15-181 Q71L): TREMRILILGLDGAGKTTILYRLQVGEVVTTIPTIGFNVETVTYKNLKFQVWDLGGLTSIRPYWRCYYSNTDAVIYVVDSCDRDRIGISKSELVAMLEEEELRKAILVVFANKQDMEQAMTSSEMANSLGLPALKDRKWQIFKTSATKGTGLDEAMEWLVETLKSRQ

- Kd [1]: 86 µM
B1: His6-DCB^BIG1 (human BIG1 residues 1–228), Q9Y6D6 L156D (protein)
chain: MYEGKKTKNMFLTRALEKILADKEVKKAHHSQLRKACEVALEEIKAETEKQSPPHGEAKAGSSTLPPVKSKTNFIEADKYFLPFELACQSKCPRIVSTSLDCLQKLIAYGHLTGNAPDSTTPGKKLIDRIIETICGCFQGPQTDEGVQLQIIKALDTAVTSQHIEIHEGTVLQAVRTCYNIYLASKNLINQTTAKATLTQMLNVIFARMENQALQEAKQMEKERHRQH

- Kd [1]: 140 µM
B2: His6-DCB^BIG1 (human BIG1 residues 1–228), Q9Y6D6 Q200E (protein)
chain: B1 chain with D156L, Q200E

- Kd [2]: 26 µM
B3: His6-DCB^BIG1 (human BIG1 residues 1–228) (domain or fragment)
chain: B1 chain with D156L

- fold increase of Kd against wild type [2]: > 5 fold
B4: His6-DCB^BIG1 Gln200Glu (domain or fragment)
chain: B1 chain with D156L, Q200E

- fold increase of Kd against wild type [2]: > 5 fold
B5: His6-DCB^BIG1 Lys105Asp (domain or fragment)
chain: B1 chain with K105D, D156L

- Kd [1]: 110 µM
B6: His6-DCB^BIG1 (human BIG1 residues 1–228), Q9Y6D6 K105D (protein)
chain: B1 chain with K105D, D156L
